One data set has as its target T1, Vs.4 (Tequatrovirus T4, UniProt P13314).
T1 construct: gene acb2; residues 1-88, full length; SUMO fusion with His6, tag cleaved by ULP1; E. coli BL21(DE3)pLysS
T1 sequence (P13314 1-88): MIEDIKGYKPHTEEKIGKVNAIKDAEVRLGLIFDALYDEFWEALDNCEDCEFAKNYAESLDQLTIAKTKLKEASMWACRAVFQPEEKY
Description: isothermal titration calorimetry (VP-ITC), global fit of three titrations. The format is binding. For orientation: In ITC the heat of successive injections is recorded.

In the next data set the target is cGAMP. Description: ITC. The following applies: for Kd: parent: 31.4 nM; for other: ΔH: parent: -24.9 kcal/mol; for other: ΔS: parent: -50.6.
Data set [1] concerns the molecule itself. Briefly: crystal structure; Vs.4 with 3'3'-cGAMP (1.2:1 molar ratio), hanging drops, 7% PEG8000, 0.1 M imidazole pH 6.3, 0.2 mM calcium acetate, room temperature; quaternary structure confirmed with PISA.
Data set [2] concerns the molecule itself. Briefly: AUC; sedimentation velocity, 15 µM of each protein in 20 mM Tris and 150 mM NaCl; hexamer.
Where [3] appears, read: high incompetent fraction (0.496).

The text below walks through data of publication PMC10097602, “Ubiquitin-like conjugation by bacterial cGAS enhances anti-phage defence” (Nature, 2023).

Changes are numbered by the printed parent chain. In names and notes the source's numbering stands.

A word on the Kd: it is the concentration at which binding is half-saturated. Turning to `Nc1nc2c(ncn2[C@@H]2O[C@@H]3COP(=O)(O)O[C@H]4[C@@H](O)[C@H](n5cnc6c(N)ncnc65)O[C@@H]4COP(=O)(O)O[C@H]3[C@H]2O)c(=O)[nH]1` [3′3′-cGAMP], on Vs.4, the Kd was determined as 0.0314 µM.

Take “Vs.4 from phage T4 (residues 1-88) (from UniProt P13314) A77Y”: in the data set with cGAMP, the Kd came to 1.1 µM, the other: ΔH is -20.9 kJ/mol and the other: ΔS turned out to be 10.3 cal/mol·K.

In the case of “Vs.4 from phage T4 (residues 1-88) (from UniProt P13314) F33A”, in the data set with cGAMP (setting [3]), the Kd amounted to 0.0253 µM, the other: ΔH is -102 kJ/mol and the other: ΔS is -48.8 cal/mol·K.

On to “Vs.4 from phage T4 (residues 1-88) (from UniProt P13314) F82A”, for which, in the data set with cGAMP, the dissociation constant (Kd) came out at 0.859 µM, the other: ΔH is -97.5 kJ/mol and the other: ΔS is -51.6 cal/mol·K.

As for “Vs.4 from phage T4 (residues 1-88) (from UniProt P13314) Y8A”, in the data set with cGAMP, the dissociation constant (Kd) worked out at 0.158 µM, the other: ΔH is -44.4 kJ/mol and the other: ΔS was -5 cal/mol·K.

B1: Vs.4 from phage T4 (residues 1-88) (natural protein, UniProt P13314 1-88, looked up)
chain: T1 sequence (P13314 1-88)
notes: Vs.4, protein of unknown function of bacteriophage T4, residues 1-88; T4 proteome UniProt UP000009087; Hexamer by crystal structure and analytical ultracentrifugation; also called Vs.4 (WT); wild-type Vs.4; source: E. coli BL21(DE3)pLysS, purified (Ni-NTA, SUMO tag cleaved with ULP1, size-exclusion chromatography)
Usually stoichiometry N stands for a count of units in the complex or per binding partner. Turning to B1, the “stoichiometry N” value in data set [1] is 6.

B2: Vs.4 F33A (natural protein, phage T4, UniProt P13314 1-88, looked up)
chain: T1 sequence (P13314 1-88) with F33A
notes: Vs.4 of bacteriophage T4, residues 1-88, with F33A; source: E. coli BL21(DE3)pLysS, purified (Ni-NTA, SUMO tag cleaved with ULP1, size-exclusion chromatography)
Consider B2, for which the binding result in data set [2] was “binds”.
